These results are taken from PMC10724393, “FOXA2 Suppression by TRIM36 Exerts Anti‐Tumor Role in Colorectal Cancer Via Inducing NRF2/GPX4‐Regulated Ferroptosis” (Advanced Science, 2023).

In experiment [1] the target is T1, His-tagged TRIM36 (human, UniProt Q9NQ86 1-728).
T1 construct: TRIM36, human; construct and limits of the His-tagged protein are not described; also called His-TRIM36; source: purified
T1 sequence (looked up): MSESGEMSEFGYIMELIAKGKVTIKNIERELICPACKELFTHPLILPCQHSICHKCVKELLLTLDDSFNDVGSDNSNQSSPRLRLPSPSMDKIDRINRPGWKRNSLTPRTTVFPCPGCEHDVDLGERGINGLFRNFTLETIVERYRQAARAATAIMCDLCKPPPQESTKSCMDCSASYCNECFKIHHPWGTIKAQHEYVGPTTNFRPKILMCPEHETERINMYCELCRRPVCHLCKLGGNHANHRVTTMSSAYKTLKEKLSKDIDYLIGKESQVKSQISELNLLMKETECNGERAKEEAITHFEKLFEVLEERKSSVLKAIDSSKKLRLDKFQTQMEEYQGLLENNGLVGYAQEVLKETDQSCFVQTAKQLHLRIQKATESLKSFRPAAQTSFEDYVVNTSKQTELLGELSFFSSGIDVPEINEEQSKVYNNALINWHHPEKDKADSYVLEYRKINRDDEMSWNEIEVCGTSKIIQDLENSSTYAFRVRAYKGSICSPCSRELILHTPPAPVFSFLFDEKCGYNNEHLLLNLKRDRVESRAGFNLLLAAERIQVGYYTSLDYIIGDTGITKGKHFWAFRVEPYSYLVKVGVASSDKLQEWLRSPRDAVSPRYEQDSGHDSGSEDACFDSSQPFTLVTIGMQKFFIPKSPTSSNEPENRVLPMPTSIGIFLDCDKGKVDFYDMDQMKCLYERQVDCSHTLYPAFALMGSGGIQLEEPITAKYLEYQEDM
The experiment can be described thus: pull-down; GST fusion on glutathione-Sepharose 4B beads, incubated with purified His-tagged partner for 4 h; eluate blotted with anti-His; GST alone as control. Particulars: both partners purified.

Experiment [2] addresses T2, GST-TRIM36 (human, UniProt Q9NQ86 1-728).
T2 construct: TRIM36, human cDNA, full length, cloned into pGEX-4T-1-GST; also called purified GST-TRIM36
T2 sequence (looked up): T1 sequence (looked up)
The description is as above. Particulars: both partners purified.

B1: GST-FOXA2 (natural protein, human, UniProt Q9Y261 1-457, looked up)
chain: MLGAVKMEGHEPSDWSSYYAEPEGYSSVSNMNAGLGMNGMNTYMSMSAAAMGSGSGNMSAGSMNMSSYVGAGMSPSLAGMSPGAGAMAGMGGSAGAAGVAGMGPHLSPSLSPLGGQAAGAMGGLAPYANMNSMSPMYGQAGLSRARDPKTYRRSYTHAKPPYSYISLITMAIQQSPNKMLTLSEIYQWIMDLFPFYRQNQQRWQNSIRHSLSFNDCFLKVPRSPDKPGKGSFWTLHPDSGNMFENGCYLRRQKRFKCEKQLALKEAAGAAGSGKKAAAGAQASQAQLGEAAGPASETPAGTESPHSSASPCQEHKRGGLGELKGTPAAALSPPEPAPSPGQQQQAAAHLLGPPHHPGLPPEAHLKPEHHYAFNHPFSINNLMSSEQQHHHSHHHHQPHKMDLKAYEQVMHYPGYGSPMPGSLAMGPVTNKTGLDASPLAADTSYYQGVYSRPIMNSS
notes: FOXA2, human cDNA, full length, cloned into pGEX-4T-1-GST; also called purified GST-FOXA2
B1: the binding result in experiment [1] is recorded as “binds”.

B2: His-tagged FOXA2 (natural protein, human, UniProt Q9Y261 1-457, looked up)
chain: B1 chain
notes: FOXA2, human; construct and limits of the His-tagged protein are not described; also called His-FOXA2; source: purified
In the case of B2, in experiment [2], the binding result is recorded as “binds”.
